The source of these data is publication PMC12796476 (Nature Communications, 2025).

For orientation: Kd means the free concentration of one partner at which half of the binding sites on the other are occupied at equilibrium, for simple one-to-one binding.

The target of test [1] is full-length NEDD4-2-Venus (Homo sapiens, NEDD4L, UniProt Q96PU5, strain). Description: FRET or BRET. On the technique in general: Bioluminescence resonance energy transfer reports proximity on the nanometre scale.
In test [2] the target is Venus-tagged NEDD4-1 HECT domain (HECT4-1-Ven) (Homo sapiens, NEDD4, UniProt P46934). In words: FRET or BRET.
In test [3] the target is WW4-HECT4-2 domain of NEDD4-2, purified (Homo sapiens, NEDD4L (Q96PU5-1), UniProt Q96PU5-1). Description: BLI. On the technique in general: BLI is a label-free optical method that tracks binding on a fibre tip over time.
Chain of WW4-HECT4-2 domain of NEDD4-2, purified (Q96PU5 541-975, one chain of several): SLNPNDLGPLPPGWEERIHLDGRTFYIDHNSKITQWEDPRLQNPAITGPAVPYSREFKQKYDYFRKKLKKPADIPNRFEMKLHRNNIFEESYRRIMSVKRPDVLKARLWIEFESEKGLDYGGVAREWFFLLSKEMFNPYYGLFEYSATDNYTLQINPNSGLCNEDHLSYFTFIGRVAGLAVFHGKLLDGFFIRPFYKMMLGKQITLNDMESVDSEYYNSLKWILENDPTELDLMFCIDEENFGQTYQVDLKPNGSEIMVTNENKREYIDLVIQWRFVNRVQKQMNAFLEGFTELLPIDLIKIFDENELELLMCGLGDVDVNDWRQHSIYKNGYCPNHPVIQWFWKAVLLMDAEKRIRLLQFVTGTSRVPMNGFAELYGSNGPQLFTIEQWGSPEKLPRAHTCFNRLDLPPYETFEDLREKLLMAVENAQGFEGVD

Chain of full-length NEDD4-2-Venus (Q96PU5 whole entry, looked up, change not shown, the tested form may be a part): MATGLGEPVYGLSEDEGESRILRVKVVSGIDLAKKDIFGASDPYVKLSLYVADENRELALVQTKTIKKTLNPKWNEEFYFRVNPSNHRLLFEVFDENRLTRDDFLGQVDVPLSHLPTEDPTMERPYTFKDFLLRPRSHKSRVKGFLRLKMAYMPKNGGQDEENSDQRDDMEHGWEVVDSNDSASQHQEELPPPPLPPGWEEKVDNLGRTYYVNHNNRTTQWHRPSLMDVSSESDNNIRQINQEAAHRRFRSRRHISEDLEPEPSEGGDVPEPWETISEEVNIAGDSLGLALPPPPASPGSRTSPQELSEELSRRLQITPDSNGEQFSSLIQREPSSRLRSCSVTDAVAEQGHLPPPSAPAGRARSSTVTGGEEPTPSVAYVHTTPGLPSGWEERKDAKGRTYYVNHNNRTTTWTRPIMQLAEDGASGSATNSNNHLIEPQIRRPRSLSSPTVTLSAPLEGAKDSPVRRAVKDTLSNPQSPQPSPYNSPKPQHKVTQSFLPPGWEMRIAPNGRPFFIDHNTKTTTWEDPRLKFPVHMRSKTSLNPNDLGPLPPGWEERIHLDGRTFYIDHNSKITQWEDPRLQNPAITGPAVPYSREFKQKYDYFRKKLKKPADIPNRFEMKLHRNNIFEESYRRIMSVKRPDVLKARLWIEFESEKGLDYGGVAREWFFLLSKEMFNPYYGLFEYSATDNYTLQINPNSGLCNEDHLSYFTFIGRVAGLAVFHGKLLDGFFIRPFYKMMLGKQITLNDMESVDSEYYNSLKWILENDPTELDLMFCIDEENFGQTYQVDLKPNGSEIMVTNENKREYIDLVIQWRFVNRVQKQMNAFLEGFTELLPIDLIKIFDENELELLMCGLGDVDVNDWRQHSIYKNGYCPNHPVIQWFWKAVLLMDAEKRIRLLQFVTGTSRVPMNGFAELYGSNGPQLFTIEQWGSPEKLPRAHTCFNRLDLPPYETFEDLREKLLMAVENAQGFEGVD
Chain of Venus-tagged NEDD4-1 HECT domain (HECT4-1-Ven) (P46934 984-1318): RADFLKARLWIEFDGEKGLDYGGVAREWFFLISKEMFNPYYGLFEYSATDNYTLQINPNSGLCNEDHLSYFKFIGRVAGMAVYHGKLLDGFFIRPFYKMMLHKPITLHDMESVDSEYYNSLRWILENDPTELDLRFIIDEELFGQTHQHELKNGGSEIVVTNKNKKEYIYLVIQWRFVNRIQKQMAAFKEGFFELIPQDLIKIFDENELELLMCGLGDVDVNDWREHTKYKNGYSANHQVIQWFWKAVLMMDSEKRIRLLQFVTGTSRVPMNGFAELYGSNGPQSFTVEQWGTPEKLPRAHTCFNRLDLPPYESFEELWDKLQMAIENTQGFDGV

B1: Cer-nb.C11 (VHH)
VHH: QVQLQESGGGLVQAGGSLRLSCAASGNISDVWYMGWYRQAPGKEREFVAGIAYGTSTYYADSVKGRFTISRDNAKNTVYLQMNSLKPEDTAVYYCAVIITRFVSYPRQHTYWGQGTQVTVSS
In the case of B1, the binding result in test [1] is listed as “binds”; in test [2] it was “no binding”.

B2: nb.C11 (HIS-tagged, purified) (VHH)
VHH: B1 VHH
In the case of B2, binding in test [3] was put at a Kd of 2 nM.
